Patent US20080274100A1 (published 2008)
Where a chain is given by its changes, count along the chain named.

B1: Y1 scFv (scFv)
chain: EVQLVESGGGVVRPGGSLRLSCAASGFTFDDYGMSWVRQAPGKGLEWVSGINWNGGSTGYADSVKGRFTISRDNAKNSLYLQMNSLRAEDTAVYYCARMRAPVIWGQGTLVTVSRGGGGSGGGGSGGGGSSELTQDPAVSVALGQTVRITCQGDSLRSYYASWYQQKPGQAPVLVIYGKNNRPSGIPDRFSGSSSGNTASLTITGAQAEDEADYYCNSRDSSGNHVVFGGGTKLTVLGAAAEQKLISEEDLNGAA
B2: D1 scFv (scFv)
scFv: EVQLVESGGGVVRPGGSLRLSCAASGFTFDLNPKVKHMWVRQAPGKGLEWVSGINWNGGSTGYADSVKGRFTISRDNAKNSLYLQMNSLRAEDTAVYYCARLRSPFGWGQGTLVTVSRGGGGSGGGGSGGGGSSELTQDPAVSVALGQTVRITCQGDSLRSYYASWYQQKPGQAPVLVIYGKNNRPSGIPDRFSGSSSGNTASLTITGAQAEDEADYYCNSRDSSGNHVVFGGGTKLTVLGAAAEQKLISEEDLNGAA
B3: S11 scFv (scFv)
scFv: B2 scFv with S104Y, G107F
notes: also called scFv S11
B4: S1 scFv (scFv)
scFv: B2 scFv with S104P, G107L

Tests used:
glycocalicin = target: T1, glycocalicin (UniProt P07359 17-506); assay: SPR (BIAcore 3000), glycocalicin immobilized on CM5 chip
T1 construct: domain: glycocalicin (the outer membrane portion derived from GPIb); also called purified glycocalicin; purified GPIbα

GPIb on human platelets [1] = target: T2, GPIb on human platelets (human, UniProt P07359 17-652); assay: cell-based or functional assay
[2] = target: T3, platelet GPIb, guinea pig (guinea pig platelets) (guinea pig); assay: FACS on guinea pig platelets
T3 construct: whole, on cells; also called guinea pig derived platelets

GPIb on human platelets [3] = target: T2, GPIb on human platelets; assay: FACS on human platelets
[4] = target: T4, CXCR4 point mutant Tyr-21 to alanine (UniProt P61073 1-352); assay: epitope mapping with tyrosine-to-alanine point mutants of CXCR4
T4 construct: also called CXCR4 Y21A

[5] = target: T5, human CCR5 on transfected L1.2 cells (human, UniProt P51681 1-352); assay: flow cytometry, L1.2 cells transfected with human CCR5
T5 construct: whole, on cells
T5 sequence (P51681 whole entry): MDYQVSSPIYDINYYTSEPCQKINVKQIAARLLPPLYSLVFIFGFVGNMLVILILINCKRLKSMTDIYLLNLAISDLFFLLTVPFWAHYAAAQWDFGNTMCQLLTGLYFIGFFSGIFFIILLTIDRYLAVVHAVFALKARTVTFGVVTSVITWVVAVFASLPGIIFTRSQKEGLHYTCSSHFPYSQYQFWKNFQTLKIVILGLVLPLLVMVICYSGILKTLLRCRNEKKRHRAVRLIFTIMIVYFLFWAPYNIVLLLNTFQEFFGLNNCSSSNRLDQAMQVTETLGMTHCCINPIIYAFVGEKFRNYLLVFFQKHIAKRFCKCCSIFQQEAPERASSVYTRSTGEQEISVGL

T2 sequence (P07359 17-652): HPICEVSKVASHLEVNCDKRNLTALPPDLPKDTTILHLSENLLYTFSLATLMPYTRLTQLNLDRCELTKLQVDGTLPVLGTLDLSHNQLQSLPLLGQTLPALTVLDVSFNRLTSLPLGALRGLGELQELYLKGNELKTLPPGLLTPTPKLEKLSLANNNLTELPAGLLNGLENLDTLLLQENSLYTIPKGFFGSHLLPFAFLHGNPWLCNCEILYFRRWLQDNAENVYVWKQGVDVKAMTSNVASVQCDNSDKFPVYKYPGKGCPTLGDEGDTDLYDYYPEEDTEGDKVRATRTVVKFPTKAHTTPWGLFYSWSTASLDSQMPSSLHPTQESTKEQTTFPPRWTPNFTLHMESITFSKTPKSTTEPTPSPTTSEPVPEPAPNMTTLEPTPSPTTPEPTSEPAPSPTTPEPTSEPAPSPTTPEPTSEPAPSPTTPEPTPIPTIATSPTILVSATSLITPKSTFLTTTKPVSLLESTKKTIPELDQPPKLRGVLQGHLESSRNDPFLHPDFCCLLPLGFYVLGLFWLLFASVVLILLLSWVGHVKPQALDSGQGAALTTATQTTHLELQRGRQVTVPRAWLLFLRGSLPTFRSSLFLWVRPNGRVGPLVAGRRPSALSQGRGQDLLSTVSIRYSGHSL
T1 sequence (P07359 17-506 limits assumed): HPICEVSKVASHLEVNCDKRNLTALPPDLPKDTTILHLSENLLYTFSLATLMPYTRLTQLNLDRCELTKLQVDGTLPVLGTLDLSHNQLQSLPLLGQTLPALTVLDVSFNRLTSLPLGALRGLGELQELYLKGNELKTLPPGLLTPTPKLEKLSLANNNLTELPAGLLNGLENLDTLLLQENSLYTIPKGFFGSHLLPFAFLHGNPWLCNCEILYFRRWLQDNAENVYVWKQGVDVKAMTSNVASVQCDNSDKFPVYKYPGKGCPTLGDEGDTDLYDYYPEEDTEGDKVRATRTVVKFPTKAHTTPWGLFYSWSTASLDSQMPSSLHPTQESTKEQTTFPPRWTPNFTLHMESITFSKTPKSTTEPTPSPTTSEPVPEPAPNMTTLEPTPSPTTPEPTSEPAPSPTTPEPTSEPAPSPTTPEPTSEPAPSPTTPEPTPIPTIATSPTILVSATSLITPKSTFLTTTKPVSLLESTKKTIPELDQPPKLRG
T4 sequence (P61073 other isoform, or with tags, fused parts or gaps mutant limits assumed): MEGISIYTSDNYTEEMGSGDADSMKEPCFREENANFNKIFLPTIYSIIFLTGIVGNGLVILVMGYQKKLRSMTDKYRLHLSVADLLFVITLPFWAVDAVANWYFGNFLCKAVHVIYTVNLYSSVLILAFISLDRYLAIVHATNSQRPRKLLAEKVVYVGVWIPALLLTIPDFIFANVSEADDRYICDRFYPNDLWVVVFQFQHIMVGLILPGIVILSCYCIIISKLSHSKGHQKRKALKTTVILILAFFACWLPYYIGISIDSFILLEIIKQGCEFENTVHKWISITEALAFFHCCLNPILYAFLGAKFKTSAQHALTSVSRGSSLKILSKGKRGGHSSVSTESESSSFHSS

Binder | Kd (glycocalicin) [nM] | koff (glycocalicin) [s⁻¹] | inhibition of ristocetin-induced, vWF-dependent platelet aggregation in washed platelets (IC50) (GPIb on human platelets [1]) [nM] | fold binding capacity relative to Y1 [2] [fold] | fold binding capacity relative to Y1 (GPIb on human platelets [3]) [fold] | binding result [4] | binding result [5]
B1 | 450 | 0.12 | 800 | – | – | – | –
B2 | – | – | – | ~25 | ~25 | – | –
B3 | – | – | – | ~25 | ~25 | no binding | binds
B4 | – | – | – | ~25 | – | – | –
